Data: US20070111265A1 (VAN ANDEL RESEARCH INSTITUTE, published 2007)
No end group written: not given here.

How the values were obtained:
[1] = biological target: T1, human MR LBD (residues 727-984) containing a C808S mutation, 6xHis-GST fusion protein (human, UniProt P08235 727-984); assay: AlphaScreen quantitative competition with unlabeled peptide, MR LBD/corticosterone
T1 construct: also called purified MR LBD; MR LBD (C808S); not shown: glutathione S-transferase (GST) tag; thrombin protease site between GST and the MR LBD
T1 sequence: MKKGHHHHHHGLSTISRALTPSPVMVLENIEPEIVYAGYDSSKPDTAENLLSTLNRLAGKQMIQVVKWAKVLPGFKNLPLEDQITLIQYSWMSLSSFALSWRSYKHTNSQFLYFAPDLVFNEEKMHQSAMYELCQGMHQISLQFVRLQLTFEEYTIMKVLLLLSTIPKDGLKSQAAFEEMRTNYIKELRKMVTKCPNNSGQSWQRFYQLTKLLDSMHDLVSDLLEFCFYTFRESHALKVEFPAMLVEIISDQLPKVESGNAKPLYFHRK

[2] = biological target: T1, human MR LBD (residues 727-984) …; assay: AlphaScreen competition (IC50 per FIG. 3F legend), MR LBD/corticosterone
Protocol: (§1) The binding of various peptide motifs to MR was determined by AlphaScreen assays using a hexahistidine detection kit from Perkin-Elmer. MR proteins were prepared as 6×His-GST fusion proteins for the assays.

[3] = biological target: T1, human MR LBD (residues 727-984) …; assay: AlphaScreen, biotinylated peptide and 6xHis-GST MR LBD/corticosterone
Protocol: as §1

[4] = biological target: T2, MR LBD (C808S) with K785E first charge clamp mutation, 6xHis-GST fusion protein (human, UniProt P08235 727-984); assay: AlphaScreen, 100 nM corticosterone
T2 construct: not shown: glutathione S-transferase (GST) tag; thrombin protease site between GST and the MR LBD
T2 sequence: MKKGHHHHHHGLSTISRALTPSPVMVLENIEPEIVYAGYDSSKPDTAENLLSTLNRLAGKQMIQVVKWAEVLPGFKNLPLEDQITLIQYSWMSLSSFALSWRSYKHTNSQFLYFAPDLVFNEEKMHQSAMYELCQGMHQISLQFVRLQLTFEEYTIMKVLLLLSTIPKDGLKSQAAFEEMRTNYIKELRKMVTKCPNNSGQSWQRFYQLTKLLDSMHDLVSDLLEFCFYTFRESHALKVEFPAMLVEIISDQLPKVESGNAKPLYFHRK

[5] = biological target: T3, MR LBD (C808S) with E962R first charge clamp (AF-2 helix) mutation, 6xHis-GST fusion protein (human, UniProt P08235 727-984); assay: AlphaScreen, 100 nM corticosterone
T3 construct: not shown: glutathione S-transferase (GST) tag; thrombin protease site between GST and the MR LBD
T3 sequence: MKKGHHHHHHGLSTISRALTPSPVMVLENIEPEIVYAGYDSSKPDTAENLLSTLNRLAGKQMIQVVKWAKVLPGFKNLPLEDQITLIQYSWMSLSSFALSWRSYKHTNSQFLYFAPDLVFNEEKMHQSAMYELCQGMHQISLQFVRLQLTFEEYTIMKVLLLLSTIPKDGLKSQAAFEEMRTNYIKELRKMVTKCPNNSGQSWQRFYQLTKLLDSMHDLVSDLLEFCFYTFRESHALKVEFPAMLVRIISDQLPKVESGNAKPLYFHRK

B1: unlabeled SRC1-4 peptide AQQKSLLQQLLTE (peptide)
peptide: AQQKSLLQQLLTE
notes: treated as one molecule; also called SRC1-4 LXXLL motif
IC50 [1]: 0.9 µM

SQTSHKLVQLLTTTA (also called 1st motif of SRC1) [unlabeled SRC1-1 peptide]
IC50 [1]: 21.4 µM

SKGHKKLLQLLTCSS (also called 1st motif of SRC3) [unlabeled SRC3-1 peptide]
IC50 [1]: 16.8 µM

B2: SRC2-(2+3), human SRC2 fragment (residues 563-763) containing the 2nd and 3rd LXXLL motifs, 6xHis-GST fusion protein (other, UniProt Q15596 563-763, looked up)
chain: QNSPVNMNPPPLSKMGSLDSKDCFGLYGEPSEGTTGQAESSCHPGEQKETNDPNLPPAVSSERADGQSRLHDSKGQTKLLQLLTTKSDQMEPSPLASSLSDTNKDSTGSLPGSGSTHGTSLKEKHKILHRLLQDSSSPVDLAKLTAEATGKDLSQESSSTAPGSEVTIKQEPVSPKKKENALLRYLLDKDDTKDIGLPEIT
notes: No removal of the 6xHis-GST tag is described; also called purified SRC2 fragment; not shown: 6xHis tag; glutathione S-transferase (GST) tag
IC50 [2]: 0.04 µM

B3: SRC2-(M2+3), SRC2 fragment (2+3) with the 2nd LXXLL motif mutated to LXXAA (other, UniProt Q15596 563-763, looked up)
chain: QNSPVNMNPPPLSKMGSLDSKDCFGLYGEPSEGTTGQAESSCHPGEQKETNDPNLPPAVSSERADGQSRLHDSKGQTKLLQLLTTKSDQMEPSPLASSLSDTNKDSTGSLPGSGSTHGTSLKEKHKILHRAAQDSSSPVDLAKLTAEATGKDLSQESSSTAPGSEVTIKQEPVSPKKKENALLRYLLDKDDTKDIGLPEIT
notes: not shown: 6xHis tag; glutathione S-transferase (GST) tag
fold decrease of binding affinity against SRC2-(2+3) [2]: > 10 fold

GHSFADPASNLGLEDIIRKALMGSF (also: biotinylated, site not given here, also called N-COR corepressor motif) [biotinylated NCOR-2 peptide]
binding result [3]: no binding

QAVQEHASASTNMGLEAIIRKALMGKY (also: biotinylated, site not given here, also called SMRT corepressor motif) [biotinylated SMRT-2 peptide]
binding result [3]: no binding

SPSSHSSLTERHKILHRLLQEGSP (also: biotinylated, site not given here) [biotinylated SRC1-2 peptide]
binding result [4]: no binding | binding result [5]: no binding

B4: biotinylated SRC2-3 (TIF2) peptide (peptide)
peptide: QEPVSPKKKENALLRYLLDKDDTKD
modifications: also: biotinylated, site not given here
notes: also called third LXXLL motif of SRC2; TIF2/GRIP1 third motif
binding result [4]: no binding

QKPTSGPQTPQAQQKSLLQQLLTE (also: biotinylated, site not given here) [biotinylated SRC1-4 peptide]
binding result [4]: no binding
